The source of these data is paper PMC10445738.

Holding throughout (test): AP-MS
In one test the target is SNX27, endogenous (UniProt Q96L92). The following applies: FLAG-tagged OTULIN bait expressed in HEK293 cells; endogenous prey; parent: est. 62; read off a plot.
Test [1] addresses scribble (SCRIB), endogenous (UniProt Q14160). Particulars: FLAG-tagged OTULIN bait expressed in HEK293 cells; endogenous prey; parent: est. 110; read off a plot.
The target of test [2] is HOIL-1-interacting protein (HOIP), endogenous (UniProt Q96EP0). Particulars: FLAG-tagged OTULIN bait expressed in HEK293 cells; endogenous prey; parent: est. 27; read off a plot.
Sequence of UniProt Q96EP0 (Q96EP0 whole entry): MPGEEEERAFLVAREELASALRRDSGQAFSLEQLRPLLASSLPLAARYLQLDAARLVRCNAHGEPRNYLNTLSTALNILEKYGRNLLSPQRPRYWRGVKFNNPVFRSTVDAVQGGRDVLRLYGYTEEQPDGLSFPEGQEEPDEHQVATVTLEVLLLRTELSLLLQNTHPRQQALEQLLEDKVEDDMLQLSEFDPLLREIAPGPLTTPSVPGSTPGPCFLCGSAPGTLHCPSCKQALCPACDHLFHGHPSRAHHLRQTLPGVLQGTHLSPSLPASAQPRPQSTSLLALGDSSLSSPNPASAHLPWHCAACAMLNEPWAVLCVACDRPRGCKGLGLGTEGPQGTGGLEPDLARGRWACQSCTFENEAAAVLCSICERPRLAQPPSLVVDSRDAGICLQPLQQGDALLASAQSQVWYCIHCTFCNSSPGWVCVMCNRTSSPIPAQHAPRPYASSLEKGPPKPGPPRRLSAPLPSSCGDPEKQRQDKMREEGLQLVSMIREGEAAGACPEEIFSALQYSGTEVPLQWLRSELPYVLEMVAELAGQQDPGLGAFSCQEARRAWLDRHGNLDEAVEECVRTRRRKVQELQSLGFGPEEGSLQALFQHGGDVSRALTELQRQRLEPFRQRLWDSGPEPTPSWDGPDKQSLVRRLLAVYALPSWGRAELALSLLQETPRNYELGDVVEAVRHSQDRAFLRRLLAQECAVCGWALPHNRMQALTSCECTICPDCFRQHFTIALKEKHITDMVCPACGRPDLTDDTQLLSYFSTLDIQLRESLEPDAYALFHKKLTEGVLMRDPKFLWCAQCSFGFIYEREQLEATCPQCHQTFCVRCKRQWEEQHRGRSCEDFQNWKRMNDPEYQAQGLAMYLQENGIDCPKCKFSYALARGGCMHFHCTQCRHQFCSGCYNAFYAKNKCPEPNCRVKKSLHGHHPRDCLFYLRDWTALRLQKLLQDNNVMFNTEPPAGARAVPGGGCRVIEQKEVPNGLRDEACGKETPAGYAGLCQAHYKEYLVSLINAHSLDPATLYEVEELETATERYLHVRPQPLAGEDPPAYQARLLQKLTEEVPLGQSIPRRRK
Another test deals with SLC9A3R2, endogenous (UniProt Q15599). The following applies: FLAG-tagged OTULIN bait expressed in HEK293 cells; endogenous prey; read off a plot.
Sequence of UniProt Q15599 (Q15599 whole entry): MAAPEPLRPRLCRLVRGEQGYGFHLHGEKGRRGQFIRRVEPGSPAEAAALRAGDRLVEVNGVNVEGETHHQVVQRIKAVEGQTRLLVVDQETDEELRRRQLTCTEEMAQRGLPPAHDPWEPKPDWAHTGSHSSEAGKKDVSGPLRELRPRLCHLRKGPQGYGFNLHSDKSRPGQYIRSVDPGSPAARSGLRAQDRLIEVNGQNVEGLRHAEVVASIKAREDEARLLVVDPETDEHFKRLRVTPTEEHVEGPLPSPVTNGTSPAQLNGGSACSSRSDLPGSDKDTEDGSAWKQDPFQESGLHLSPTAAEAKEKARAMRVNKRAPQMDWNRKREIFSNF

Sequence of UniProt Q14160 (Q14160 whole entry): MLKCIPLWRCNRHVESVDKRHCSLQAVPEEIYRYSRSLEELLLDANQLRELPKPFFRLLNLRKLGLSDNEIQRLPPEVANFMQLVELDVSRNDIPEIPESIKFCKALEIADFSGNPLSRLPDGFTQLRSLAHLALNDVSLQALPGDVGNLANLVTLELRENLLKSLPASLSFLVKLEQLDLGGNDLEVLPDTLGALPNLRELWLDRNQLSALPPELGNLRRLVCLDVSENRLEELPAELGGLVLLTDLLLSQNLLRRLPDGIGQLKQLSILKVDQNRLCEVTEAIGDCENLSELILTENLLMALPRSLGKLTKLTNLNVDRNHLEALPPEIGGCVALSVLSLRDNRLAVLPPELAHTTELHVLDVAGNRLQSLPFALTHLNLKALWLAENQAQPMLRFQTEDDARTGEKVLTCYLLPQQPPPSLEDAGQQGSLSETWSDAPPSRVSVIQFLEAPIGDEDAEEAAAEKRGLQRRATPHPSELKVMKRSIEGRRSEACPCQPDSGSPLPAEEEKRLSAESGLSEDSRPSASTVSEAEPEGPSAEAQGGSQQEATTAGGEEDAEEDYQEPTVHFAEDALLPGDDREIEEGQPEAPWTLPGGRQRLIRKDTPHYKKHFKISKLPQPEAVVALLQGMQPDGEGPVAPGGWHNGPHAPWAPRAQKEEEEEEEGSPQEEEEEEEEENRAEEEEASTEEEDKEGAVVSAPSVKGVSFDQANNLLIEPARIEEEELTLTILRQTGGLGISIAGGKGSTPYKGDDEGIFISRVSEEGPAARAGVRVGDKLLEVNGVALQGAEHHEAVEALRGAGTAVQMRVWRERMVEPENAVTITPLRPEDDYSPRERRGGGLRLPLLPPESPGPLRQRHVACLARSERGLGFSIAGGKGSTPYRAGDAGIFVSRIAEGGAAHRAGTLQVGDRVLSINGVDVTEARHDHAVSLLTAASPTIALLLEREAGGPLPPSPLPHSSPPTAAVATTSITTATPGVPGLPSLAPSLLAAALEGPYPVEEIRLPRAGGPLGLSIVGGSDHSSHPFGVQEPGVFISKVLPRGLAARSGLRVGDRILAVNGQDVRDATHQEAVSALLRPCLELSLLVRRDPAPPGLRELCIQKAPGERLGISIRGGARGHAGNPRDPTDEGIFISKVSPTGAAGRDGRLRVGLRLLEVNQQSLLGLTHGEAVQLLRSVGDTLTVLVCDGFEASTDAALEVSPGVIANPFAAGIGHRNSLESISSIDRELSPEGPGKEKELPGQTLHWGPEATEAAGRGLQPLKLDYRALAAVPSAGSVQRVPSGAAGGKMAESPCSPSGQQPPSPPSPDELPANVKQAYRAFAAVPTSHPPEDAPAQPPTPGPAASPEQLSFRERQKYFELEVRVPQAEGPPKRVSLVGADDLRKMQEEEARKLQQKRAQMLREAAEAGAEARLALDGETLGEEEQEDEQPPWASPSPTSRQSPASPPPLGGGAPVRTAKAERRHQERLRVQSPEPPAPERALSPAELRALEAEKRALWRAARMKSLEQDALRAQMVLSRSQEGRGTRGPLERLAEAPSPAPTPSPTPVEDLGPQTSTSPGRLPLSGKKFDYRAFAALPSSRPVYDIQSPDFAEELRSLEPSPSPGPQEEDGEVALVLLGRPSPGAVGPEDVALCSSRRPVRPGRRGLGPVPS

Take “FLAG-tagged full-length OTULIN (WT) (from UniProt Q96BN8) ΔPBM: C-terminal ETSL to AAAA”: the response (spectral counts) with SNX27, endogenous was 0; in test [1], 0; in test [2] it was 23; in the test with SLC9A3R2, endogenous it was 0.
